{
  "source": "patent US10385103B2",
  "about": "“Cell-permeable (ICP)-SOCS3 recombinant protein and uses thereof” (CELLIVERY THERAPEUTICS, INC., priority 2014, dated 2019)",
  "molecules": {"B1": {"name": "HM165S3B: His-tagged recombinant protein of aMTD165, human SOCS3 and solubilization domain B; prototype improved cell-permeable SOCS3 (protein)", "chain": "MGSSHHHHHHSSGLVPRGSHMALAVPVALAIVPVTHSKFPAAGMETSRPLDTSLRLKTFSSKSEYQLVVNAVRKLQESGFYWSAVTGGEANLLLSAEPAGTFLIRDSSDQRHFFTLSVKTQSGTKNLRIQCEGGSFSLQSDPRSTQPVPRFDCVLKLVHHYMETPPPGAPSFPSPPTEPSSEVPEQPSAQPLPGSPPRRAYYIYSGGEKIPLVLSRPLSSNVATLQHLCRKTVNGHLDSYEKVTQLPGPIREFLDQYDAPLGSMAEQSDKDVKYYTLEEIQKHKDSKSTWVILHHKVYDLTKFLEEHPGGEEVLGEQAGGDATENFEDVGHSTDARELSKTYIIGELHPDDRSKIAKPSETL", "modifications": "Amino acid sequence of HM165S3B"}},
  "key": {"RAW 264.7 cells": {"tested_on": "RAW 264.7 cells", "test": "Cell-to-cell protein transfer (flow cytometry)", "format": "cell-based", "description": "For this, RAW 264.7 cells were treated with 5 μM of FITC-labeled HM165S3B, HTS3B for 2 hour and washed with PBS two times. Thereafter, they were seeded on PANC-1 cell, incubated for 2 hours and treated with 20 ng/ml of IFN-γ for 15 minutes, followed by Western blotting in the same manner as in Example 8-1. And Cell-to-cell protein transfer was assessed by flow cytometry.\nFor this, RAW 264.7 cells were treated with 10 uM of FITC-labeled iCP-SOCS3 (HM165S3B) protein for 1 hour. Thereafter, these cells were co-cultured with PerCP-Cy5.5-CD 14-stained RAW 264.7 cells for 2 hours. Cell-to-cell protein transfer was assessed by flow cytometry, scoring for CD14/FITC double-positive cells."}, "HepG2 cells": {"tested_on": "HepG2 cells", "test": "Wound cell migration assay", "format": "cell-based, human", "conditions": "10 μM 2 hrs, additional 24-72 hrs", "description": "(§1) Cells were seeded into 12-well plates, grown to 90% confluence, and incubated with 10 μM Non-CP-SOCS3 (HS3B), iCP-SOCS3 (HM165S3B) in serum-free medium for 2 hrs prior to changing the growth medium (recommended medium by the supplier). The cells were washed twice with PBS, and the monolayer at the center of the well was “wounded” by scraping with a pipette tip. Cells were cultured for an additional 24-72 hrs and cell migration was observed by phase contrast microscopy (Nikon, ECLIPSE Ts2). The migration was quantified by counting the number of cells that migrated from the wound edge into the clear area."}, "Chang liver cells [1]": {"tested_on": "Chang liver cells", "test": "Wound cell migration assay", "format": "cell-based, human", "conditions": "10 μM 2 hrs, additional 24-72 hrs", "description": "as §1"}, "Huh-7 cells": {"tested_on": "Huh-7 cells", "test": "Wound cell migration assay", "format": "cell-based, human", "conditions": "10 μM 2 hrs, additional 24-72 hrs", "description": "as §1"}, "Chang liver cells [2]": {"tested_on": "Chang liver cells", "test": "Induction of apoptosis, TUNEL assay", "format": "cell-based, human", "conditions": "10 μM, 24 hr, 2% fetal bovine serum", "description": "(§2) Apoptotic cells were analyzed using terminal dUTP nick-end labeling (TUNEL) assay with In Situ Cell Death Detection kit TMR red (Roche, 4056 Basel, Switzerland). Cells were treated for 24 hr with 10 μM HS3B or HM165S3B proteins with 2% fetal bovine serum and apoptotic cells were visualized by TUNEL staining. Treated cells were washed with cold PBS two times, fixed in 4% paraformaldehyde (PFA, Junsei, Tokyo, Japan) for 1 hr at room temperature, and incubated in 0.1% Triton X-100 for 2 min on the ice. Cells were washed with cold PBS twice, and treated TUNEL reaction mixture for 1 hr at 37° C. in dark, washed cold PBS three times and observed by fluorescence microscopy (Nikon, Tokyo, Japan). Cisplatin® (IC50: 30 μM) was used for reference drug."}, "Huh7 cells": {"tested_on": "Huh7 cells", "test": "Induction of apoptosis, TUNEL assay", "format": "cell-based, human", "conditions": "10 μM, 24 hr, 2% fetal bovine serum", "description": "as §2"}, "[3]": {"tested_on": "Hep3B2.1-7 hepatocellular carcinoma cells", "test": "Anti-proliferative activity, CellTiter-Glo, hepatocellular carcinoma cells", "format": "cell-based, human", "conditions": "10 μM, 96 hrs, compared to vehicle", "description": "Cells originated from human hepatocellular carcinoma cell (Hep3B, HepG2, Huh-7, SK-Hep1), human normal cells (HEK293, HaCaT, Chang liver cell) and mouse fibroblast (NIH3T3) were purchased from ATCC (Manassas, Va., USA) and KCLB (Seoul, Korea). All the cells were maintained as recommended by the supplier. These cells (3×10^3/well) were seeded in 96 well plates. The next day, cells were treated with DMEM (vehicle) or 10 μM recombinant SOCS3 proteins for 96 hrs in the presence of serum (2%). Proteins were replaced daily. Cell growth and survival were evaluated with the CellTiter-Glo Cell Viability Assay (Promega, Madison, Wis.). Measurements using a Luminometer (Turner Designs, Sunnyvale, Calif.) were conducted following the manufacturer's protocol."}, "STAT1": {"tested_on": "STAT1", "test": "Inhibition of IFN-γ-induced STAT phosphorylation in PANC-1 cells (western blot), STAT1", "format": "cell-based", "conditions": "PANC-1, 10 ng/ml IFN-γ 15 min, 10 μM protein 2 hrs", "description": "PANC-1 Cells (KCLB, Seoul, South Korea) were treated with 10 ng/ml IFN-γ (R&D systems, Abingdon, UK) for 15 min and treated with either DMEM (vehicle) or 10 μM aMTD/SD-fused SOCS3 recombinant proteins for 2 hrs. The cells were lysed in RIPA lysis buffer (Biosesang, Seongnam, Korea) containing proteinase inhibitor cocktail (Roche, Indianapolis, Ind., USA), incubated for 15 min at 4° C., and centrifuged at 13,000 rpm for 10 min at 4° C. Equal amounts of lysates were separated on 10% SDS-PAGE gels and transferred to a nitrocellulose membrane. The membranes were blocked using 5% skim milk in TBST and for western blot analysis incubated with the following antibodies: anti-phospho-STAT1 (Cell Signaling Technology, USA) and anti-phospho-STAT3 (Cell Signaling Technology, USA), then HRP conjugated anti-rabbit secondary antibody (Santacruz)."}, "IL-6": {"tested_on": "IL-6", "test": "LPS/IFN-γ-induced cytokine secretion in peritoneal macrophages (cytometric bead array), IL-6", "format": "cell-based, C3H/HeJ mice", "conditions": "10 μM protein; IFN-γ and LPS", "description": "Peritoneal macrophages were obtained from C3H/HeJ mice (Doo-Yeol Biotech Co. Ltd. Korea) Peritoneal macrophages were incubated with 10 μM SOCS3 recombinant proteins (1:HS3, 2:HM165S3, 3:HM165S3A and 4:HM165S3B, respectively) for 1 hr at 37° C. and then stimulated them with LPS (Lipopolysaccharide)(500 ng/ml) and/or IFN-γ (100 U/ml) without removing iCP-SOCS3 proteins for 3, 6, or 9 hrs. The culture media were collected, and the extracellular levels of cytokine (TNF-α, IL-6) were measured by a cytometric bead array (BD Pharmingen, San Diego, Calif., USA) according to the manufacturer's instructions."}, "normal cells": {"tested_on": "normal cells", "test": "Inhibition of cell cycle progression (PI staining, flow cytometry)", "format": "cell-based", "conditions": "10 uM, 8 hrs", "description": "HCCs and normal cells were treated with 10 uM protein (Non-CP-SOCS3 (HS3B) and iCP-SOSC3 (HM165S3B)) for 8 hrs. After the treatment, cells were washed twice with cold PBS and re-suspended in 1 ml cold PBS, fixed in cold 70% ethanol, washed with cold PBS twice and re-suspended in PI master mix (PI 10 ug/ml (SIGMA, USA), 50 ug/ml RNase A (Invitrogen, USA) in staining buffer) at a final cell density of 2×10^5 cell/ml. The cell mixtures were incubated 30 min in the dark at 4° C. Flow cytometric analysis was immediately performed using a guava easyCyte™ 8 Instrument (Merck Millipore, Darmstadt, Germany)."}},
  "data": [
    {"molecule": "B1", "values": [
      {"measurement": "cell-to-cell protein transfer (CD14/FITC double-positive cells)", "setting": "RAW 264.7 cells; 10 uM FITC-labeled protein 1 hour, co-culture with CD14-stained RAW 264.7 cells 2 hours", "value": "Efficient cell-to-cell transfer"},
      {"measurement": "cell-to-cell protein transfer", "setting": "RAW 264.7 cells; RAW 264.7 treated with 5 μM FITC-labeled protein 2 hour, seeded on PANC-1 cell 2 hours", "value": "efficient cell-to-cell transfer"},
      {"measurement": "wound cell migration, HepG2", "setting": "HepG2 cells", "value": "suppressed the repopulation of wounded monolayer"},
      {"measurement": "wound cell migration, normal Chang liver cells", "setting": "Chang liver cells [1]", "value": "had no effect on the cell migration"},
      {"measurement": "wound cell migration, Huh-7", "setting": "Huh-7 cells", "value": "suppressed the repopulation of wounded monolayer"},
      {"measurement": "induction of apoptosis (TUNEL), Chang liver cells", "setting": "Chang liver cells [2]", "value": "did not induce apoptosis"},
      {"measurement": "induction of apoptosis (TUNEL), Huh7", "setting": "Huh7 cells", "value": "considerably efficient inducer of apoptosis"},
      {"measurement": "cytotoxicity to Hep3B2.1-7 cells", "setting": "[3]", "value": "over 80%"},
      {"measurement": "IFN-γ-induced phosphorylation of STAT1", "setting": "STAT1", "value": "suppressed IFN-γ-induced phosphorylation of STAT1 and STAT3"},
      {"measurement": "effect on IL-6 secretion", "setting": "IL-6", "value": "showed the greatest inhibitory effect on cytokine secretion"},
      {"measurement": "cell cycle progression in normal cells", "setting": "normal cells", "value": "did not inhibit cell cycle progression"}
    ]}
  ]
}
